Source: patent US20050148031A1, “Catalytic efficiency and/or specificity of non-native substrates of enzymes” (priority 2003, published 2005)
Blank lines part the entries; values can stand above or below the compound they belong to.

How the values were obtained:
[1] = molecular target: T1, MKP-1 dephosphorylation of ERK2 (Mus musculus, UniProt P63085); test: Phosphatase assay: MKP-1 dephosphorylation of ERK2 with docking domain peptides; assay type: biochemical, human (MKP-1); settings: western blot with anti-phospho-ERK2
T1 construct: purchased Upstate Biotechnology (MKP-1); no vendor is printed for the active ERK2 in this assay
Procedure: The following experiment was performed to assess whether MAPK-docking domain peptides would inhibit dephosphorylation of ERK2 by MKP-1. Purified, full-length, activated ERK2 (0.5 pmol) was incubated with 0.5 units of purified active MKP-1 for 20 min, in the absence or presence of the specified concentrations of the indicated peptides. ERK2 dephosphoryation was quantified by SDS-PAGE followed by western blotting and immonostaining with anti-phospho-ERK2 (Thr202/Tyr204). The lanes corresponding to ERK2 with no MKP-1 or no added peptide contain 50% of the relative amounts loaded in all other lanes (see FIG. 4A).
Phosphatase reactions (20 μl) for MKP-1 dephosphorylation of ERK2 contained 50 mM Tris-HCl (pH 7.5), 50 mM NaCl, 0.5 pmol active mouse ERK2, 0.5 units active human MKP-1 (Upstate Biotechnology) and the indicated concentration of peptide. Reactions were for 30 min. at 30° C. Reactions were analyzed by SDS-PAGE followed by western transfer and immunostaining with anti-phospho-ERK2 (Thr202/Tyro204) antibody (New England Biolabs).

MEK2 binding to GST-ERK2 = molecular target: T2, MEK2 binding to GST-ERK2 (Mus musculus, UniProt P63085); test: GST co-sedimentation (pull-down) assay of 35S-MEK2 binding to GST-ERK2; settings: 25 μM or 100 μM peptide
T2 construct: made in house; host or cells: MEK2 by in vitro translation
Procedure: The purpose of the following experiment is to assess whether MAPK docking domain peptides would inhibit MEK2-binding to GST-ERK2. Radiolabeled (^35S) MEK2 and MEK2Δ4-16 proteins (˜1 pmol) were prepared by in vitro translation, partially purified by ammonium sulfate precipitation, and then incubated with 10 μg of purified GST or GST-ERK2 pre-bound to glutathione-Sepharose beads, in the absence or presence of the specified concentrations of docking domain peptides (Ste7, MEK1, MEK2, Elk-1) or mutant forms of docking domain peptides (scram7, MEK2EEAA, ElkEEG). Bead-bound protein complexes were isolated by sedimentation and resolved on 12% SDS-polyacrylamide gels. An autoradiogram of a representative experiment is illustrated (see FIG. 5A). Gels were analyzed by staining with Coomassie Blue for visualization of the bound GST fusion protein in order to verify equal amounts in each reaction and by autoradiography for visualization of the bound radiolabeled MEK2 or MEK2Δ4-16 to GST or GST-ERK2 in the absence of peptide (hatched bars), or in the presence of 25 μM (light gray bars) or 100 μM peptide (dark gray bars) (see FIG. 5B). Data are the average of three to five experiments; standard error bars are shown.
The constructs and methods used in the GST co-sedimentation (“pull-down”) experiments shown in FIG. 5 have been described elsewhere (Bardwell et al., 2001). […]

[2] = molecular target: T3, MEK2 phosphorylation of ERK2 (Mus musculus, UniProt P63085, K52R); test: Kinase assay: MEK2 phosphorylation of ERK2 with docking domain peptides; assay type: biochemical, human (MEK2)
T3 construct: purchased New England Biolabs (ERK2 K52R); Upstate Biotechnology (MEK2)
Procedure: The following experiment was done to investigate whether docking domain peptides could inhibit MEK2 phosphorylation of ERK2. […] An autoradiogram of a representative experiment is shown (see FIG. 2A). The results were plotted as percent phoshphorylation relative to that observed in the absence of any added peptide (see FIG. 2B). ERK2 phosphorylation was analyzed by SDS-PAGE and quantified. Data are the average of two to four experiments, with triplicate data points in each experiment.
ERK2 and peptide were pre-incubated in buffer for 10 min at 37° C., then returned to ice prior to the addition of ATP and MEK2. Reactions were for 20 min at 30° C. ERK2 phosphorylation was quantified by SDS-PAGE followed by analysis of relative incorporation using a Phosphorlmager™ (Molecular Dynamics, Inc.).

- inhibition of MKP-1 mediated dephosphorylation of phospho-ERK2 (in words) [1]: dose-dependent inhibition
- inhibition of MEK2 protein co-sedimentation with GST-ERK2 (in words) (MEK2 binding to GST-ERK2): inhibited
Compound: KGRKPRDLELPLSPS [Elk-1, docking domain peptide from Elk-1 residues 312-326]

- IC50 ([2]; 1 μM inactive ERK2, 0.1 units active MEK2, 20 min, read-out: IC50 for inhibition of MEK2 phosphorylation of ERK2): ~100 µM
Compound: CC[C@H](C)[C@H](NC(=O)[C@@H]1CCCN1C(=O)[C@@H](NC(=O)[C@@H]1CCCN1C(=O)[C@H](CCCCN)NC(=O)[C@H](CCCCN)NC(=O)[C@H](CCCCN)NC(=O)[C@@H]1CCCN1C(=O)[C@@H](N)CCSC)[C@@H](C)O)C(=O)N[C@@H](CCC(N)=O)C(=O)N[C@@H](CC(C)C)C(=O)N[C@@H](CC(N)=O)C(=O)N1CCC[C@H]1C(=O)N[C@@H](C)C(=O)N1CCC[C@H]1C(=O)N[C@@H](CC(=O)O)C(=O)NCC(=O)O [MEK1, MPKKKPTPIQLNPAPDG]

- inhibition of ERK2 phosphorylation by MEK2 (in words) ([2]; peptide titrated into MEK2 kinase assay): did not inhibit
Compound: MLAEEKPVLPAATANPTIAE [MEK2 mutant peptide, MEK2 peptide with mutations in basic and hydrophobic residues]
